Measurements from EP4201483A1, “LPL1 DERIVED IMMUNE ENHANCING PEPTIDES” (priority 2021, dated 2023).

B1: TAKGHYFVTTFYRNGKLPDEKNYKIEMKNNKIILLDEVKDDKLKQKIENFKFFGQYANL KELRK (peptide, listed as Staphylococcus aureus)
chain: TAKGHYFVTTFYRNGKLPDEKNYKIEMKNNKIILLDEVKDDKLKQKIENFKFFGQYANLKELRK
notes: 64 aa domain of S.aureus Lpli protein
B2: LNC2: Lpl1 derived peptide, 64 aa, sequence shown as image only (peptide)
peptide: DEIVKELRSRYNISTEKSPILKMHIDGDLKGSSVGYRKLEIDFSKRENSKLSVIEFLSYKPAKK

Legend:
HaCaT cells [1] = experiment: F-actin levels in HaCaT cells; format: cell-based, human; set-up: key: ⇑: increased invasion and F-actin level; ⇓: decreased invasion and F-actin level
Method: (§1) To identify Lpli motifs that interact with the target protein Hsp90α the inventors synthesized peptides of various length covering the whole Lpli protein. All the peptides (> 40) were tested for their ability a) to interact with Hsp90α, and b) to trigger S. aureus internalization by keratinocyte-like HaCaT cells. Table 1: Selected Lpl1 derived peptides with their effect on USA300 invasion in HaCaT keratinocytes, interaction with Hsp90α and F-actin levels in HaCaT cells

HaCaT cells [2] = experiment: S. aureus USA300 invasion / internalization by HaCaT keratinocytes; format: cell-based, human; set-up: key: ⇑: increased invasion and F-actin level; ⇓: decreased invasion and F-actin level; conditions: Triggering invasion of USA300 by keratinocytes (HaCaT)
Method: as §1
The inventors compared the effect on host internalization of L13 and L15 with that of geldanamycin. Geldanamycin is a well-known cell permeable anti-neoplastic drug that competes with ATP for binding to Hsp90, thus inhibiting Hsp90 activity (Gorska et al., 2012). This in turn leads to inactivation, destabilization, and eventual degradation of Hsp90 client proteins, The geldanamycin analog 17AAG decreased F-actin formation upon Hsp90 inhibition (Taiyab & Rao Ch, 2011).

Molecule | F-actin levels (HaCaT cells [1]) | Invasion (HaCaT cells [2])
B1 | ⇑ | ⇑
B2 | ⇑ | ⇑
